The values below come from patent publication US9212226B2, “Amino acid sequences directed against CXCR4 and other GPCRs and compounds comprising the same” (Ablynx N.V., priority 2008, dated 2015).

The target in this test is CXCR4 (Homo sapiens, UniProt P61073). The test can be described thus: [125I]-CXCL12 competition binding on membranes from HEK293T cells transiently expressing CXCR4. As to conditions: for affinity to CXCR4: in words; for displacement of specifically bound [125I]-CXCL12: purified ligands, highest Nanobody test concentration 0.5 μM; for Binding (binding efficiency, competition binding with [125I]-CXCL12): screening of Nanobody clone pools.

The mark [1] stands for this setting: membranes from HEK293T cells transiently expressing CXCR4, mean ± S.E.M.
[2] abbreviates: membranes from HEK293T cells transiently expressing CXCR4.

Chain of CXCR4 (P61073 whole entry): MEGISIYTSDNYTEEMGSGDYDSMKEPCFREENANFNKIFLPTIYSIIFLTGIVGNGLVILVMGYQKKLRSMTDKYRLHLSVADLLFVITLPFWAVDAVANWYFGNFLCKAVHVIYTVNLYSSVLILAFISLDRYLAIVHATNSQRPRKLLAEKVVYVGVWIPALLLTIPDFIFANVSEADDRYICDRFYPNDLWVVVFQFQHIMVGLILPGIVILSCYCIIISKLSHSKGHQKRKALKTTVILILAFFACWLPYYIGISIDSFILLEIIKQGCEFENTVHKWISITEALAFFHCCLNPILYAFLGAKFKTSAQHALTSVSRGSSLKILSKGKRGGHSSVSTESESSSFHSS

B1: 238D2: Nanobody (VHH) raised against human CXCR4, SEQ ID NO: 238 (protein)
VHH: EVQLVESGGGLVQTGGSLRLSCAASGFTFSSYAMSWVRQAPGKGLEWVSGIKSSGDSTRYAGSVKGRFTISRDNAKNMLYLQMYSLKPEDTAVYYCAKSRVSRTGLYTYDNRGQGTQVTVSS
modifications: Nanobody, Nanobody constructs or fragments thereof
As for B1, the “affinity to CXCR4” value was “low nanomolar range” and the “displacement of specifically bound [125I]-CXCL12” value was “fully displace”. Moreover, under setting [1], the “Displacem. (%) of [125I]-CXCL12 (maximal displacement)” value is 93 ± 5% and the “pKi, [125I]-CXCL12” value is listed as 8.01 ± 0.12. For the same molecule, the “Binding (binding efficiency, competition binding with [125I]-CXCL12)” value under setting [2] is listed as “++ (++ = 70-100%)”.

B2: 238D4: Nanobody (VHH) raised against human CXCR4, SEQ ID NO: 239 (protein)
VHH: EVQLMESGGGLVQAGGSLRLSCAASGRTFNNYAMGWFRRAPGKEREFVAAITRSGVRSGVSAIYGDSVKDRFTISRDNAKNTLYLQMNSLKPEDTAVYTCAASAIGSGALRRFEYDYSGQGTQVTVSS
modifications: Nanobody, Nanobody constructs or fragments thereof
Turning to B2, the “affinity to CXCR4” value is reported as “low nanomolar range” and the “displacement of specifically bound [125I]-CXCL12” value is reported as “fully displace”. The “Binding (binding efficiency, competition binding with [125I]-CXCL12)” value under setting [2] is reported as “++ (++ = 70-100%)”.
